This experiment addresses T1, GST fusion protein of the GKAP C-terminus (50 C-terminal residues), P97836-4.
T1 chain: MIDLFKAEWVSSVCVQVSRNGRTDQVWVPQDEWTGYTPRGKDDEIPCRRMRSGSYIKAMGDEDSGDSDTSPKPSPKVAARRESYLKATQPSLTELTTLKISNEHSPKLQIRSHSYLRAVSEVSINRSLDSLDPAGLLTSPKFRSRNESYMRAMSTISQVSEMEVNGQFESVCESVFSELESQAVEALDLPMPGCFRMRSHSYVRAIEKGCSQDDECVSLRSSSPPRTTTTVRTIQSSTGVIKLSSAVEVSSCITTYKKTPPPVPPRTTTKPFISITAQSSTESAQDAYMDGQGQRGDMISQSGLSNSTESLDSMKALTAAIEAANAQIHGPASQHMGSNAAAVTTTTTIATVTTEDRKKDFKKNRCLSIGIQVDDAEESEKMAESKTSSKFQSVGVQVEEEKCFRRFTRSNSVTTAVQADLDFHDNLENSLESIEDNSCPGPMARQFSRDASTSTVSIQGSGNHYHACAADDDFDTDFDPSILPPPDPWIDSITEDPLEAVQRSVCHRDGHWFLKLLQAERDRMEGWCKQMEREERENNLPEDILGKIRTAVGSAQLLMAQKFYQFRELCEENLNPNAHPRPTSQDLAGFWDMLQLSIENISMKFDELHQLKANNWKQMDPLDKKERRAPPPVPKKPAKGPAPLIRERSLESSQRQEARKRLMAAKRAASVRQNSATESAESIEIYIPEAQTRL
In words: GST pulldown, Western blot quantification. The conditions noted are these: chain shown with the change; 293T cell lysates; four independent experiments; parent: est. 3.8; read off a plot. (In general: A western blot detects proteins with antibodies after separation by electrophoresis.)

B1: mCherry-tagged human Shank2a (WT), Q9UPX8-3 S610Y (protein)
chain: MPRSPTSSEDEMAQSFSDYSVGSESDSSKEETIYDTIRATAEKPGGARTEESQGNTLVIRVVIHDLQQTKCIRFNPDATVWVAKQRILCTLTQSLKDVLNYGLFQPASNGRDGKFLDEERLLREYPQPVGEGVPSLEFRYKKRVYKQASLDEKQLAKLHTKTNLKKCMDHIQHRLVEKITKMLDRGLDPNFHDPETGETPLTLAAQLDDSVEVIKALKNGGAHLDFRAKDGMTALHKAARARNQVALKTLLELGASPDYKDSYGLTPLYHTAIVGGDPYCCELLLHEHATVCCKDENGWHEIHQACRYGHVQHLEHLLFYGADMSAQNASGNTALHICALYNQDSCARVLLFRGGNKELKNYNSQTPFQVAIIAGNFELAEYIKNHKETDIVPFREAPAYSNRRRRPPNTLAAPRVLLRSNSDNNLNASAPDWAVCSTATSHRSLSPQLLQQMPSKPEGAAKTIGSYVPGPRSRSPSLNRLGGAGEDGKRPQPLWHVGSPFALGANKDSLSAFEYPGPKRKLYSAVPGRLFVAVKPYQPQVDGEIPLHRGDRVKVLSIGEGGFWEGSARGHIGWFPAECVEEVQCKPRDSQAETRADRSKKLFRHYTVGYYDSFDTSSDCIIEEKTVVLQKKDNEGFGFVLRGAKADTPIEEFTPTPAFPALQYLESVDEGGVAWQAGLRTGDFLIEVNNENVVKVGHRQVVNMIRQGGNHLVLKVVTVTRNLDPDDTARKKAPPPPKRAPTTALTLRSKSMTSELEELVDKASVRKKKDKPEEIVPASKPSRAAENMAVEPRVATIKQRPSSRCFPAGSDMNSVYERQGIAVMTPTVPGSPKAPFLGIPRGTMRRQKSIDSRIFLSGITEEERQFLAPPMLKFTRSLSMPDTSEDIPPPPQSVPPSPPPPSPTTYNCPKSPTPRVYGTIKPAFNQNSAAKVSPATRSDTVATMMREKGMYFRRELDRYSLDSEDLYSRNAGPQANFRNKRGQMPENPYSEVGKIASKAVYVPAKPARRKGMLVKQSNVEDSPEKTCSIPIPTIIVKEPSTSSSGKSSQGSSMEIDPQAPEPPSQLRPDESLTVSSPFAAAIAGAVRDREKRLEARRNSPAFLSTDLGDEDVGLGPPAPRTRPSMFPEEGDFADEDSAEQLSSPMPSATPREPENHFVGGAEASAPGEAGRPLNSTSKAQGPESSPAVPSASSGTAGPGNYVHPLTGRLLDPSSPLALALSARDRAMKESQQGPKGEAPKADLNKPLYIDTKMRPSLDAGFPTVTRQNTRGPLRRQETENKYETDLGRDRKGDDKKNMLIDIMDTSQQKSAGLLMVHTVDATKLDNALQEEDEKAEVEMKPDSSPSEVPEGVSETEGALQISAAPEPTTVPGRTIVAVGSMEEAVILPFRIPPPPLASVDLDEDFIFTEPLPPPLEFANSFDIPDDRAASVPALSDLVKQKKSDTPQSPSLNSSQPTNSADSKKPASLSNCLPASFLPPPESFDAVADSGIEEVDSRSSSDHHLETTSTISTVSSISTLSSEGGENVDTCTVYADGQAFMVDKPPVPPKPKMKPIIHKSNALYQDALVEEDVDSFVIPPPAPPPPPGSAQPGMAKVLQPRTSKLWGDVTEIKSPILSGPKANVISELNSILQQMNREKLAKPGEGLDSPMGAKSASLAPRSPEIMSTISGTRSTTVTFTVRPGTSQPITLQSRPPDYESRTSGTRRAPSPVVSPTEMNKETLPAPLSAATASPSPALSDVFSLPSQPPSGDLFGLNPAGRSRSPSPSILQQPISNKPFTTKPVHLWTKPDVADWLESLNLGEHKEAFMDNEIDGSHLPNLQKEDLIDLGVTRVGHRMNIERALKQLLDR
Turning to B1, the response (Precipitate / Input) was determined as 2.4.

B2: mCherry-tagged human Shank2a (WT), Q9UPX8-3 N690S (protein)
chain: MPRSPTSSEDEMAQSFSDYSVGSESDSSKEETIYDTIRATAEKPGGARTEESQGNTLVIRVVIHDLQQTKCIRFNPDATVWVAKQRILCTLTQSLKDVLNYGLFQPASNGRDGKFLDEERLLREYPQPVGEGVPSLEFRYKKRVYKQASLDEKQLAKLHTKTNLKKCMDHIQHRLVEKITKMLDRGLDPNFHDPETGETPLTLAAQLDDSVEVIKALKNGGAHLDFRAKDGMTALHKAARARNQVALKTLLELGASPDYKDSYGLTPLYHTAIVGGDPYCCELLLHEHATVCCKDENGWHEIHQACRYGHVQHLEHLLFYGADMSAQNASGNTALHICALYNQDSCARVLLFRGGNKELKNYNSQTPFQVAIIAGNFELAEYIKNHKETDIVPFREAPAYSNRRRRPPNTLAAPRVLLRSNSDNNLNASAPDWAVCSTATSHRSLSPQLLQQMPSKPEGAAKTIGSYVPGPRSRSPSLNRLGGAGEDGKRPQPLWHVGSPFALGANKDSLSAFEYPGPKRKLYSAVPGRLFVAVKPYQPQVDGEIPLHRGDRVKVLSIGEGGFWEGSARGHIGWFPAECVEEVQCKPRDSQAETRADRSKKLFRHYTVGSYDSFDTSSDCIIEEKTVVLQKKDNEGFGFVLRGAKADTPIEEFTPTPAFPALQYLESVDEGGVAWQAGLRTGDFLIEVNSENVVKVGHRQVVNMIRQGGNHLVLKVVTVTRNLDPDDTARKKAPPPPKRAPTTALTLRSKSMTSELEELVDKASVRKKKDKPEEIVPASKPSRAAENMAVEPRVATIKQRPSSRCFPAGSDMNSVYERQGIAVMTPTVPGSPKAPFLGIPRGTMRRQKSIDSRIFLSGITEEERQFLAPPMLKFTRSLSMPDTSEDIPPPPQSVPPSPPPPSPTTYNCPKSPTPRVYGTIKPAFNQNSAAKVSPATRSDTVATMMREKGMYFRRELDRYSLDSEDLYSRNAGPQANFRNKRGQMPENPYSEVGKIASKAVYVPAKPARRKGMLVKQSNVEDSPEKTCSIPIPTIIVKEPSTSSSGKSSQGSSMEIDPQAPEPPSQLRPDESLTVSSPFAAAIAGAVRDREKRLEARRNSPAFLSTDLGDEDVGLGPPAPRTRPSMFPEEGDFADEDSAEQLSSPMPSATPREPENHFVGGAEASAPGEAGRPLNSTSKAQGPESSPAVPSASSGTAGPGNYVHPLTGRLLDPSSPLALALSARDRAMKESQQGPKGEAPKADLNKPLYIDTKMRPSLDAGFPTVTRQNTRGPLRRQETENKYETDLGRDRKGDDKKNMLIDIMDTSQQKSAGLLMVHTVDATKLDNALQEEDEKAEVEMKPDSSPSEVPEGVSETEGALQISAAPEPTTVPGRTIVAVGSMEEAVILPFRIPPPPLASVDLDEDFIFTEPLPPPLEFANSFDIPDDRAASVPALSDLVKQKKSDTPQSPSLNSSQPTNSADSKKPASLSNCLPASFLPPPESFDAVADSGIEEVDSRSSSDHHLETTSTISTVSSISTLSSEGGENVDTCTVYADGQAFMVDKPPVPPKPKMKPIIHKSNALYQDALVEEDVDSFVIPPPAPPPPPGSAQPGMAKVLQPRTSKLWGDVTEIKSPILSGPKANVISELNSILQQMNREKLAKPGEGLDSPMGAKSASLAPRSPEIMSTISGTRSTTVTFTVRPGTSQPITLQSRPPDYESRTSGTRRAPSPVVSPTEMNKETLPAPLSAATASPSPALSDVFSLPSQPPSGDLFGLNPAGRSRSPSPSILQQPISNKPFTTKPVHLWTKPDVADWLESLNLGEHKEAFMDNEIDGSHLPNLQKEDLIDLGVTRVGHRMNIERALKQLLDR
Take B2: the response (Precipitate / Input) was 2.8.

B3: mCherry-tagged human Shank2a (WT), Q9UPX8-3 G643R (protein)
chain: MPRSPTSSEDEMAQSFSDYSVGSESDSSKEETIYDTIRATAEKPGGARTEESQGNTLVIRVVIHDLQQTKCIRFNPDATVWVAKQRILCTLTQSLKDVLNYGLFQPASNGRDGKFLDEERLLREYPQPVGEGVPSLEFRYKKRVYKQASLDEKQLAKLHTKTNLKKCMDHIQHRLVEKITKMLDRGLDPNFHDPETGETPLTLAAQLDDSVEVIKALKNGGAHLDFRAKDGMTALHKAARARNQVALKTLLELGASPDYKDSYGLTPLYHTAIVGGDPYCCELLLHEHATVCCKDENGWHEIHQACRYGHVQHLEHLLFYGADMSAQNASGNTALHICALYNQDSCARVLLFRGGNKELKNYNSQTPFQVAIIAGNFELAEYIKNHKETDIVPFREAPAYSNRRRRPPNTLAAPRVLLRSNSDNNLNASAPDWAVCSTATSHRSLSPQLLQQMPSKPEGAAKTIGSYVPGPRSRSPSLNRLGGAGEDGKRPQPLWHVGSPFALGANKDSLSAFEYPGPKRKLYSAVPGRLFVAVKPYQPQVDGEIPLHRGDRVKVLSIGEGGFWEGSARGHIGWFPAECVEEVQCKPRDSQAETRADRSKKLFRHYTVGSYDSFDTSSDCIIEEKTVVLQKKDNEGFGFVLRRAKADTPIEEFTPTPAFPALQYLESVDEGGVAWQAGLRTGDFLIEVNNENVVKVGHRQVVNMIRQGGNHLVLKVVTVTRNLDPDDTARKKAPPPPKRAPTTALTLRSKSMTSELEELVDKASVRKKKDKPEEIVPASKPSRAAENMAVEPRVATIKQRPSSRCFPAGSDMNSVYERQGIAVMTPTVPGSPKAPFLGIPRGTMRRQKSIDSRIFLSGITEEERQFLAPPMLKFTRSLSMPDTSEDIPPPPQSVPPSPPPPSPTTYNCPKSPTPRVYGTIKPAFNQNSAAKVSPATRSDTVATMMREKGMYFRRELDRYSLDSEDLYSRNAGPQANFRNKRGQMPENPYSEVGKIASKAVYVPAKPARRKGMLVKQSNVEDSPEKTCSIPIPTIIVKEPSTSSSGKSSQGSSMEIDPQAPEPPSQLRPDESLTVSSPFAAAIAGAVRDREKRLEARRNSPAFLSTDLGDEDVGLGPPAPRTRPSMFPEEGDFADEDSAEQLSSPMPSATPREPENHFVGGAEASAPGEAGRPLNSTSKAQGPESSPAVPSASSGTAGPGNYVHPLTGRLLDPSSPLALALSARDRAMKESQQGPKGEAPKADLNKPLYIDTKMRPSLDAGFPTVTRQNTRGPLRRQETENKYETDLGRDRKGDDKKNMLIDIMDTSQQKSAGLLMVHTVDATKLDNALQEEDEKAEVEMKPDSSPSEVPEGVSETEGALQISAAPEPTTVPGRTIVAVGSMEEAVILPFRIPPPPLASVDLDEDFIFTEPLPPPLEFANSFDIPDDRAASVPALSDLVKQKKSDTPQSPSLNSSQPTNSADSKKPASLSNCLPASFLPPPESFDAVADSGIEEVDSRSSSDHHLETTSTISTVSSISTLSSEGGENVDTCTVYADGQAFMVDKPPVPPKPKMKPIIHKSNALYQDALVEEDVDSFVIPPPAPPPPPGSAQPGMAKVLQPRTSKLWGDVTEIKSPILSGPKANVISELNSILQQMNREKLAKPGEGLDSPMGAKSASLAPRSPEIMSTISGTRSTTVTFTVRPGTSQPITLQSRPPDYESRTSGTRRAPSPVVSPTEMNKETLPAPLSAATASPSPALSDVFSLPSQPPSGDLFGLNPAGRSRSPSPSILQQPISNKPFTTKPVHLWTKPDVADWLESLNLGEHKEAFMDNEIDGSHLPNLQKEDLIDLGVTRVGHRMNIERALKQLLDR
In the case of B3, the response (Precipitate / Input) amounted to 0.3.

Values taken from publication PMC11371640, “Structural deficits in key domains of Shank2 lead to alterations in postsynaptic nanoclusters and to a neurodevelopmental disorder in humans” (Molecular Psychiatry, 2022).
